Measurements taken from patent US6780611B1, “Polynucleotide encoding neuromedin U receptor” (Pfizer Inc., priority 1999, dated 2004).
No end group written: not given here.

Target: T1, PFI-002 receptor (Homo sapiens, UniProt Q9GZQ4, S2A)
T1 construct: expressed in transfected cells; host or cells: HEK 293 (human embryonic kidney), transient transfection
Experiment: Functional screen of peptides by FLIPR (Fluo-3 fluorescence) in HEK 293 cells transiently transfected with PFI-002
Assay type: cell-based
Conditions: HEK 293 cells transiently transfected with PFI-002, Fluo-3 loaded; neuromedins 10 μM final, in triplicate; other peptides 5 μM final
Description: Transient Expression in Native HEK 293 Cells
Transfection: 7.5 μg of PFI-002 DNA was transiently transfected into native human embryonic kidney 293 (HEK 293) cells (75 cm^2 flask, 80% confluent) using the Lipofectamine Plus protocol (Life Technologies, Inc.) and following the manufacturer's instructions. 24 hrs after transfection, the cells were detached with trypsin and seeded into black walled 96 well plates at a density of 5×10^4 cells/well. The next day the cells were loaded with Fluo-3 in the presence of 3 mM probenicid (Molecular Devices; inhibits activity of the anion transport protein, thus improving dye loading) for 1.5 hours (loading dye/96 well plate: 50 μg Fluo-3 in 20 μl DMSO+20 μl 20% pluronic acid in DMSO+11 ml growth media+3 mM probenicid—added 100 μl loading dye/well). After washing (wash buffer PBS/3 mM probenicid/pH 7.4), the cells were exposed to 60 peptides (final concentration 5 μM each) arrayed in a 96 well plate. In addition, neuromedins B, C, N, U8 and U25 (final concentration 10 μM each) were screened in triplicate. Fluorescence was measured by a Fluorometric Imaging Plate Reader (FLIPR, Molecular Devices) according to the manufacturer's protocol.

T1 sequence (Q9GZQ4 whole entry S2A): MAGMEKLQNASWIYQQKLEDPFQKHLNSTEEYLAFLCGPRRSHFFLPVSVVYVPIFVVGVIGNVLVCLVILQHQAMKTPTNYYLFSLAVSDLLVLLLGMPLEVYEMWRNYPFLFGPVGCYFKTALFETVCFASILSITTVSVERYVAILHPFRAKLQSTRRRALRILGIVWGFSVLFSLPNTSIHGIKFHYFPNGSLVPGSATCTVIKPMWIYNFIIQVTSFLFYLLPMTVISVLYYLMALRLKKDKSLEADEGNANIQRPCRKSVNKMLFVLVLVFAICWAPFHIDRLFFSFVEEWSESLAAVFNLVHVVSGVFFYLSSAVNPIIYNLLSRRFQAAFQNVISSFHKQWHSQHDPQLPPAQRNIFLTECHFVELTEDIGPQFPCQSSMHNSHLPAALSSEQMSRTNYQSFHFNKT

functional response of PFI-002 receptor (fluorescence measured by FLIPR, FIG. 2): specific functional response
Substance: neuromedin U: Peptide ligand of the PFI-002 receptor; screened as Neuromedin U8 and Neuromedin U25 (wells F10-G3) (FRVDEEFQSPFASQSRGYFLFRPRN; ends and bridges not checked; UniProt P48645 142-166, looked up)
